According to patent US20220112291A1 (Pfizer, published 2022):

What was measured:
[1] = biological target: human CD1a expressed on cells (human, UniProt P06126 17-327); test: cell-based or functional assay
[2] = biological target: T1, human single-chain CD1a-β2M recombinant protein (Human B2M-CD1a ECD-Avi-His6) (human); test: SPR (Biacore), IgG; antigen taken as human CD1a
T1 construct: Biotinylated in the HTRF, phage selection and Gyrolab assays; also called human CD1a; CD1a protein

[3] = biological target: T1, human single-chain CD1a-β2M recombinant …; test: competition ELISA on plate-coated CD1a protein; competitor: biotinylated parental chimeric Ab40 at a fixed concentration; streptavidin-HRP, OD450
Method: For competition ELISA, high-binding Costar ELISA plates were coated with 0.1 μg per well (100 μL of 1 μg/mL) CD1a protein in PBS buffer overnight at 4° C. Plates were then washed and blocked for 3 hours with PBS+3% bovine serum albumin (BSA) at room temperature. […] After 2 hours incubation, plates were washed and incubated for 1 hour with streptavidin-HRP secondary reagent. After washing, plates were incubated with one-component HRP substrate and the developed color measured at 450 nm using Envision plate reader (Perkin Elmer).

Sequence of human CD1a expressed on cells (P06126 17-327): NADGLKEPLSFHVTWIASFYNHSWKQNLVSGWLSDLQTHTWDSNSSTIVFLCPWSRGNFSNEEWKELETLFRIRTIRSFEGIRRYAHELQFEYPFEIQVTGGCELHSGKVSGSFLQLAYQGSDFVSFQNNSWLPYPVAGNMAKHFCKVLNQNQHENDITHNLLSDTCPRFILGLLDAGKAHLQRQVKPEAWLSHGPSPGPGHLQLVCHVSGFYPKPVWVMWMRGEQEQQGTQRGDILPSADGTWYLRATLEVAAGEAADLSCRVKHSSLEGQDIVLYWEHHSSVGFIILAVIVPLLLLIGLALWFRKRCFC
T1 sequence (chain, as listed by the source limits assumed): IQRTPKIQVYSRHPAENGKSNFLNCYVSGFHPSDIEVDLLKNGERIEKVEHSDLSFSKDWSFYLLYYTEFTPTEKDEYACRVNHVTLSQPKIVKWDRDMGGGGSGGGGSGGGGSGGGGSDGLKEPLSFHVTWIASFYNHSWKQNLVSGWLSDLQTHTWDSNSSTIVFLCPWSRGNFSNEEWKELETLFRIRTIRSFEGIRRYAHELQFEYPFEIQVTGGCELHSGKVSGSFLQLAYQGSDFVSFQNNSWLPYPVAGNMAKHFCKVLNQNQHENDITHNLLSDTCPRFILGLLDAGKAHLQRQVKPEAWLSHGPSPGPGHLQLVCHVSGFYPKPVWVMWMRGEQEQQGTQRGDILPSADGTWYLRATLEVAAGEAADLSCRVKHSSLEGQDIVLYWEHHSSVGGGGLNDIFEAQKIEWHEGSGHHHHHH

Inhibition of CD69 expression, IC50 [1]	Kd [2]	IC50 [3]	Inhibition of IL-2 production, IC50 [1]	Binder
1.97 nM	3.87 nM	1.94 nM		Ab138 (antibody, human IgG1, kappa, V domains shown, Humanized variant of chimeric Ab40; human IgG1 (L234A/L235A/G237A, effector function null) / human kappa; heavy chain can be prepared with or without the terminal lysine; Tb-labeled in the HTRF assay; also called humanized anti-CD1a antibody Ab138; parental Ab138) VH: EVQLVESGGGLVQPGGSLRLSCAASGFTFTDFYMNWVRQAPGKGLEWVAFIRNKANGYTTESNPSVKGRFTISRDNAKNSLYLQMNSLRAEDTAVYYCARETTGIPTGWFAYWGQGTLVTVSS VL: DIQMTQSPSSLSASVGDRVTITCLASEDISNDLAWYQQKPGKAPKLLIYGANRLKDGVPSRFSGSGSGTDYTLTISSLQPEDFATYYCQQSYKYPYTFGQGTKLEIKR
0.51 nM	0.41 nM		0.19 nM	Ab657 (antibody, human IgG1, kappa, V domains shown, Optimized variant of Ab138; human IgG1 effector null / kappa; HC with or without terminal lysine) VH: EVQLVESGGGLVQPGGSLRLSCAASGFTFTDHYMHWVRQAPGKGLEWVAHTRDKAGGYTTESNPAVKGRFTISRDNAKNSLYLQMNSLRAEDTAVYYCARETTRIPTGWFAYWGQGTLVTVSS VL: DIQMTQSPSSLSASVGDRVTITCLASEDIYFDLAWYQQKPGKAPKLLIYGASTPKDGVPSRFSGSGSGTDYTLTISSLQPEDFATYYCQQSEKYPYTFGQGTKLEIKR
0.3 nM	0.21 nM		0.18 nM	Ab673 (antibody, human IgG1, kappa, V domains shown, Optimized variant of Ab138; human IgG1 effector null / kappa; HC with or without terminal lysine) VH: EVQLVESGGGLVQPGGSLRLSCAASGFTFTDHYMHWVRQAPGKGLEWVAHTRDKAGGYTTESNPAVKGRFTISRDNAKNSLYLQMNSLRAEDTAVYYCARETTRIPTGWFAYWGQGTLVTVSS VL: DIQMTQSPSSLSASVGDRVTITCLASEDIYFDLAWYQQKPGKAPKLLIYGGDRLKEGVPSRFSGSGSGTDYTLTISSLQPEDFATYYCQQSYSYPYTFGQGTKLEIKR
0.73 nM	0.27 nM			Ab579 (antibody, human IgG1, kappa, V domains shown, Optimized variant of Ab138; human IgG1 effector null / kappa; HC with or without terminal lysine) VH: EVQLVESGGGLVQPGGSLRLSCAASGFTFTDHYMTWVRQAPGKGLEWVAFIRNSAGGYTTESNPAVKGRFTISRDNAKNSLYLQMNSLRAEDTAVYYCARETTRIPTGWFAYWGQGTLVTVSS VL: DIQMTQSPSSLSASVGDRVTITCLASEDIYFDLAWYQQKPGKAPKLLIYGGDRLKEGVPSRFSGSGSGTDYTLTISSLQPEDFATYYCQQSYSYPYTFGQGTKLEIKR
0.33 nM	0.57 nM		0.15 nM	Ab660 (antibody, human IgG1, kappa, V domains shown, Optimized variant of Ab138; human IgG1 effector null / kappa; HC with or without terminal lysine) VH: EVQLVESGGGLVQPGGSLRLSCAASGFTFTDHYMHWVRQAPGKGLEWVGHIRNAAGGYTTESNPAVKGRFTISRDNAKNSLYLQMNSLRAEDTAVYYCARETTRIPTGWFAYWGQGTLVTVSS VL: DIQMTQSPSSLSASVGDRVTITCLASEDIYFDLAWYQQKPGKAPKLLIYGASTPKDGVPSRFSGSGSGTDYTLTISSLQPEDFATYYCQQSEKYPYTFGQGTKLEIKR
0.35 nM	0.56 nM		0.17 nM	Ab623 (antibody, human IgG1, kappa, V domains shown, Optimized variant of Ab138; human IgG1 effector null / kappa; HC with or without terminal lysine) VH: EVQLVESGGGLVQPGGSLRLSCAASGFTFEDHYMHWVRQAPGKGLEWVAHTRDKAGGYTTESNPAVKGRFTISRDNAKNSLYLQMNSLRAEDTAVYYCARETTRIPTGWFAYWGQGTLVTVSS VL: DIQMTQSPSSLSASVGDRVTITCLASEDIYFDLAWYQQKPGKAPKLLIYGGDRLKEGVPSRFSGSGSGTDYTLTISSLQPEDFATYYCQQSYSYPYTFGQGTKLEIKR
0.38 nM	0.32 nM		0.14 nM	Ab585 (antibody, human IgG1, kappa, V domains shown, Optimized variant of Ab138; human IgG1 effector null / kappa; HC with or without terminal lysine) VH: EVQLVESGGGLVQPGGSLRLSCAASGFTFTDHYMHWVRQAPGKGLEWVGHISGSAGGYTTESNPAVKGRFTISRDNAKNSLYLQMNSLRAEDTAVYYCARETTRIPTGWFAYWGQGTLVTVSS VL: DIQMTQSPSSLSASVGDRVTITCLASEDIYFDLAWYQQKPGKAPKLLIYGASTPKDGVPSRFSGSGSGTDYTLTISSLQPEDFATYYCQQSEKYPYTFGQGTKLEIKR
0.3 nM	0.52 nM		0.08 nM	Ab599 (antibody, human IgG1, kappa, V domains shown, Optimized variant of Ab138; human IgG1 effector null / kappa; HC with or without terminal lysine) VH: EVQLVESGGGLVQPGGSLRLSCAASGFTFTDHYMHWVRQAPGKGLEWVGHISGSAGGYTTESNPAVKGRFTISRDNAKNSLYLQMNSLRAEDTAVYYCARETTRIPTGWFAYWGQGTLVTVSS VL: DIQMTQSPSSLSASVGDRVTITCLASEDIYFDLAWYQQKPGKAPKLLIYGGDRLKEGVPSRFSGSGSGTDYTLTISSLQPEDFATYYCQQSESYPYTFGQGTKLEIKR
0.85 nM	0.39 nM			Ab572 (antibody, human IgG1, kappa, V domains shown, Optimized variant of Ab138; human IgG1 effector null / kappa; HC with or without terminal lysine) VH: EVQLVESGGGLVQPGGSLRLSCAASGFTFTDHYMTWVRQAPGKGLEWVAFIRNKAGGYTTESNPAVKGRFTISRDNAKNSLYLQMNSLRAEDTAVYYCARETTGIPTGWFAYWGQGTLVTVSS VL: DIQMTQSPSSLSASVGDRVTITCLASEDIYFDLAWYQQKPGKAPKLLIYGGDRLKEGVPSRFSGSGSGTDYTLTISSLQPEDFATYYCQQSESYPYTFGQGTKLEIKR
0.41 nM	0.46 nM		0.11 nM	Ab616 (antibody, human IgG1, kappa, V domains shown, Optimized variant of Ab138; human IgG1 effector null / kappa; HC with or without terminal lysine) VH: EVQLVESGGGLVQPGGSLRLSCAASGFTFEDHYMHWVRQAPGKGLEWVGHISGSAGGYTTESNPAVKGRFTISRDNAKNSLYLQMNSLRAEDTAVYYCARETTRIPTGWFAYWGQGTLVTVSS VL: DIQMTQSPSSLSASVGDRVTITCLASEDIYFDLAWYQQKPGKAPKLLIYGGDRLKEGVPSRFSGSGSGTDYTLTISSLQPEDFATYYCQQSYSYPYTFGQGTKLEIKR
0.41 nM	3.59 nM		0.17 nM	Ab689 (antibody, human IgG1, kappa, V domains shown, Optimized variant of Ab138; human IgG1 effector null / kappa; HC with or without terminal lysine) VH: EVQLVESGGGLVQPGGSLRLSCAASGFTFTDHYMHWVRQAPGKGLEWVAHTRDKAGGYTTESNPAVKGRFTISRDNAKNSLYLQMNSLRAEDTAVYYCARETTRIPTGWFAYWGQGTLVTVSS VL: DIQMTQSPSSLSASVGDRVTITCLASEDIYFDLAWYQQKPGKAPKLLIYGGDRLQEGVPSRFSGSGSGTDYTLTISSLQPEDFATYYCQQSYSYPYTFGQGTKLEIKR
0.39 nM	0.56 nM		0.12 nM	Ab609 (antibody, human IgG1, kappa, V domains shown, Optimized variant of Ab138; human IgG1 effector null / kappa; HC with or without terminal lysine) VH: EVQLVESGGGLVQPGGSLRLSCAASGFTFEDHYMHWVRQAPGKGLEWVAHTRDKAGGYTTESNPAVKGRFTISRDNAKNSLYLQMNSLRAEDTAVYYCARETTRIPTGWFAYWGQGTLVTVSS VL: DIQMTQSPSSLSASVGDRVTITCLASEDIYFDLAWYQQKPGKAPKLLIYGGDRLKEGVPSRFSGSGSGTDYTLTISSLQPEDFATYYCQQSESYPYTFGQGTKLEIKR
0.42 nM	1.22 nM		0.12 nM	Ab681 (antibody, human IgG1, kappa, V domains shown, Optimized variant of Ab138; human IgG1 effector null / kappa; HC with or without terminal lysine) VH: EVQLVESGGGLVQPGGSLRLSCAASGFTFTDHYMHWVRQAPGKGLEWVAHTRDKAGGYTTESNPAVKGRFTISRDNAKNSLYLQMNSLRAEDTAVYYCARETTRIPTGWFAYWGQGTLVTVSS VL: DIQMTQSPSSLSASVGDRVTITCLASEDIYFDLAWYQQKPGKAPKLLIYGGDRLQEGVPSRFSGSGSGTDYTLTISSLQPEDFATYYCQQSESYPYTFGQGTKLEIKR
0.35 nM	1.3 nM		0.17 nM	Ab624 (antibody, human IgG1, kappa, V domains shown, Optimized variant of Ab138; human IgG1 effector null / kappa; HC with or without terminal lysine) VH: EVQLVESGGGLVQPGGSLRLSCAASGFDFTDHYMHWVRQAPGKGLEWVAHTRDKAGGYTTESNPAVKGRFTISRDNAKNSLYLQMNSLRAEDTAVYYCARETTRIPTGWFAYWGQGTLVTVSS VL: DIQMTQSPSSLSASVGDRVTITCLASEDIYFDLAWYQQKPGKAPKLLIYGGDRLKEGVPSRFSGSGSGTDYTLTISSLQPEDFATYYCQQSYSYPYTFGQGTKLEIKR
0.48 nM	0.54 nM		0.22 nM	Ab656 (antibody, human IgG1, kappa, V domains shown, Optimized variant of Ab138; human IgG1 effector null / kappa; HC with or without terminal lysine) VH: EVQLVESGGGLVQPGGSLRLSCAASGFDFTDHYMHWVRQAPGKGLEWVAHTRDKAGGYTTESNPAVKGRFTISRDNAKNSLYLQMNSLRAEDTAVYYCARETTRIPTGWFAYWGQGTLVTVSS VL: DIQMTQSPSSLSASVGDRVTITCLASEDIYFDLAWYQQKPGKAPKLLIYGGDRLQEGVPSRFSGSGSGTDYTLTISSLQPEDFATYYCQQSYSYPYTFGQGTKLEIKR
0.44 nM	0.21 nM		0.09 nM	Ab610 (antibody, human IgG1, kappa, V domains shown, Optimized variant of Ab138; human IgG1 effector null / kappa; HC with or without terminal lysine) VH: EVQLVESGGGLVQPGGSLRLSCAASGFDFTDHYMHWVRQAPGKGLEWVAHTRDKAGGYTTESNPAVKGRFTISRDNAKNSLYLQMNSLRAEDTAVYYCARETTRIPTGWFAYWGQGTLVTVSS VL: DIQMTQSPSSLSASVGDRVTITCLASEDIYFDLAWYQQKPGKAPKLLIYGGDRLKEGVPSRFSGSGSGTDYTLTISSLQPEDFATYYCQQSESYPYTFGQGTKLEIKR
